According to the Human Domainome abundance scans (Beltran et al. 2025):

B1: Dynamin-binding protein, residues 242 to 304; numbered along this chain, Q6XZF7 (parent)
chain: EEPGTYGVALYRFQALEPNELDFEVGDKIRILATLEDGWLEGSLKGRTGIFPYRFVKLCPDTR

Variants of: B1
Test: abundance fitness (aPCA) (normalised: wild type 0, dead -1); higher = more abundant; growth selection in yeast, the domain comes from the species named
Conditions: Homo sapiens

Abundance fitness: each site, then its substitutions
L10: A -0.761, Q -0.564, N -0.827, V -0.252, D -0.679, C -0.477, G -0.743, P -0.7, W -0.397, S -0.457, I 0.028, K -0.384, E -0.655, H -0.566, M 0.048, F -0.873
T5: R -0.225, L 0.052, I -0.183, C -0.143, A -0.083, W -0.132, D -0.587, Y -0.214, F -0.057, S -0.282, K -0.253, Q 0, E -0.61, N -0.3, G -0.765
R12: I -0.737, Y -0.834, T -0.237, Q -0.821, L -0.637, M -0.589, S -0.12, E -0.469, A 0.177, K -0.276, N 0.009, F -0.91, H -0.446, V -0.508, G -0.071, P -0.126, C -0.477
Y11: L -0.084, R 0.206, E -0.02, I -0.14, A 0.217, V -0.086, Q 0.026, F 0.01, G -0.429, N -0.137, T 0.044, K 0.343, P -0.784, H 0.022, M -0.024, C -0.124, S -0.196, D -0.281
V8: P -0.865, D -0.717, Q -0.449, G -0.779, N -0.681, Y -0.028, K -0.427, W -0.738, T -0.047, A -0.691, L -0.192, E -0.206, F -0.373, I 0.064, H -0.321, S -0.701, C -0.531, R -0.302
G4: Q 0.059, N -0.032, W -0.312, M 0.283, V 0.008, A -0.095, Y -0.044, D -0.004, F 0.009, P 0.214, R -0.187, L -0.05, I 0.078, H 0.131, C -0.135, T 0.103, K -0.211, E 0.622
E2: K -0.512, S -0.567, I -0.013, Q -0.498, V -0.228, L -0.011, H 0.127, Y 0.015, M -0.049, A -0.586, D -0.151, W 0.044, T -0.024, R -0.321, C -0.367, G -0.166, N 0.016
F13: L -0.74, V -0.71, K -0.207, W -0.483, H 0.559, R 0.11, D -0.585, Q -0.212, P -0.644, A -0.804, Y 0.213, G -0.677, M -0.072, N -0.023, T -0.831, S -0.534
A9: S -0.566, N -0.812, T -0.623, Q -0.821, G -0.443, P -0.752, L -0.662, K -0.824, H -0.967, W -0.6, E -0.73, D -1.01, C -0.771, Y -0.578, R -0.816, I -0.737, V -0.853
Q14: H -0.032, K -0.205, Y -0.172, S -0.321, I -0.188, W -0.572, V -0.115, T -0.109, L -0.265, G -0.696, C -0.268, R -0.2, D -0.264, N -0.198, F -0.413
